According to paper PMC7857404:

Target: SARS-CoV-2-3Q-FL spike (without 2P) (SARS-CoV-2) (UniProt P0DTC2)
Assay: cryo-EM structure

**Q.** Which stoichiometry N does the source give for “SARS-CoV-2-3Q-FL spike (without 2P) (from UniProt P0DTC2 14-1273) (natural protein)” here?
**A.** 3
